Reference: patent US20020110800A1, “Use of SHP-1 and SHP-2 to detect compounds involved in neuronal survival” (McGill University, priority 1997, published 2002)

Assays:
Assay in all cases: cell-based or functional assay
TrkA Y490/785F = TrkA Y490/785F (UniProt P04629)
TrkA Y490F = TrkA Y490F (UniProt P04629)
TrkA Y785F = TrkA Y785F (UniProt P04629)
[1] = target: wild-type TrkA, baculovirus-expressed, activated (autophosphorylated) (UniProt P04629)

Question: How did the Trk tyrosine dephosphorylation on co-expression in insect cells (anti-pTyr blot) (TrkA Y490/785F) turn out when SHP-1 (enzyme) was run?
Answer: 8 fold

Question: What about the Trk tyrosine dephosphorylation on co-expression in insect cells (anti-pTyr blot) (TrkA Y490F) of the same substance?
Answer: 8 fold

Question: What about the Trk tyrosine dephosphorylation on co-expression in insect cells (anti-pTyr blot) (TrkA Y785F) of the same substance?
Answer: 8 fold

Question: What about the Trk tyrosine dephosphorylation on co-expression in insect cells (anti-pTyr blot) [1] of the same substance?
Answer: 8 fold

Question: And the dephosphorylation of Trk at Y674/Y675 (phospho-specific anti-Trk antibodies, co-expression in insect cells) [1]?
Answer: 10 fold
